Measurements reported in US20160200782A1 (MOERAE MATRIX, published 2016).

How the values were obtained:
Assay in all cases: cell-based or functional assay
PAK6(h) = PAK6(h) (human, UniProt Q9NQU5 1-681, limits assumed)
ALK4(h) = molecular target: T1, ALK4(h) (human, UniProt P36896 150-505, limits assumed)
T1 sequence (looked up): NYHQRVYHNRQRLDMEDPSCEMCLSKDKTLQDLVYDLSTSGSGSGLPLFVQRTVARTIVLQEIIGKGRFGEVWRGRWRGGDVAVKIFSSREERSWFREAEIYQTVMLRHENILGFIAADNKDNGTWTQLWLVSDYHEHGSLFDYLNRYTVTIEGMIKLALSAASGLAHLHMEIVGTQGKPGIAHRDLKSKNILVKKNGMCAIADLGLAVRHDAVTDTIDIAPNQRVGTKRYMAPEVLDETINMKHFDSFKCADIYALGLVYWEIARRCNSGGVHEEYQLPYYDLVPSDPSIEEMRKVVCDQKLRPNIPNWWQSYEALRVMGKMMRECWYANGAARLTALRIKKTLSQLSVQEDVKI

ASK1(h) = ASK1(h) (human, UniProt Q99683 649-946, limits assumed)
Chain of ASK1(h) (Q99683 649-946 limits assumed): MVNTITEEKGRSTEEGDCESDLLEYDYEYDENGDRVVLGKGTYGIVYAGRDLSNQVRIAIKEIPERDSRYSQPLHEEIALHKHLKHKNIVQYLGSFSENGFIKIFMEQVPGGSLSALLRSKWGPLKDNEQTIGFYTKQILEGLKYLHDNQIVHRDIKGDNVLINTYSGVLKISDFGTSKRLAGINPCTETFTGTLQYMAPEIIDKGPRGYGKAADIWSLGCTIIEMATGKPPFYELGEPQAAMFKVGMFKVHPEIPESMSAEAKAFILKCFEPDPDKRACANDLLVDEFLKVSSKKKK

TrkB(h) = TrkB(h) (human, UniProt Q16620 455-822, limits assumed)
Chain of TrkB(h) (Q16620 455-822 limits assumed): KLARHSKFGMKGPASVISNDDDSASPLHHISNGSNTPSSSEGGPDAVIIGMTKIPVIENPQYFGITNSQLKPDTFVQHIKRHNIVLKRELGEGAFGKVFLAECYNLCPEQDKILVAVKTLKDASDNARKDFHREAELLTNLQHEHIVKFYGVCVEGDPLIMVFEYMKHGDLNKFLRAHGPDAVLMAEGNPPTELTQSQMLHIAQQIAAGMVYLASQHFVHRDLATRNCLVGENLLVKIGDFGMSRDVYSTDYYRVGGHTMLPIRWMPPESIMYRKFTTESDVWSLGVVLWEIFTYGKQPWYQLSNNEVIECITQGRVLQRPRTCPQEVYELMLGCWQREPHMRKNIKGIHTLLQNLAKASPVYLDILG

IGF-1R(h) = IGF-1R(h) (human, UniProt P08069 959-1367, limits assumed)
Ab1(H396P)(h) = Ab1(H396P)(h) (human, UniProt P00519 27-1130, limits assumed)
Aurora-B(h) = Aurora-B(h) (human, UniProt Q96GD4 1-344)
Chain of Aurora-B(h) (Q96GD4 whole entry): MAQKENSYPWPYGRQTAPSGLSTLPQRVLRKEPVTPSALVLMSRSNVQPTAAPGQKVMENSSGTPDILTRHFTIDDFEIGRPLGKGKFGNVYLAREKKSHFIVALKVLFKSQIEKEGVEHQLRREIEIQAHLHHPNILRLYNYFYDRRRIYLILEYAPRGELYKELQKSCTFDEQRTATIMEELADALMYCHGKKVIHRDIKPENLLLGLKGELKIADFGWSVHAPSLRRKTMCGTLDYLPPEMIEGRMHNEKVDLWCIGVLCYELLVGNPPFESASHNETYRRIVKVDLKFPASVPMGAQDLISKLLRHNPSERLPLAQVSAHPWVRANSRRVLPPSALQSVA

CHK2(I157T)(h) = CHK2(I157T)(h) (human, UniProt O96017 5-543, limits assumed)
Chain of CHK2(I157T)(h) (O96017 5-543 I157T limits assumed): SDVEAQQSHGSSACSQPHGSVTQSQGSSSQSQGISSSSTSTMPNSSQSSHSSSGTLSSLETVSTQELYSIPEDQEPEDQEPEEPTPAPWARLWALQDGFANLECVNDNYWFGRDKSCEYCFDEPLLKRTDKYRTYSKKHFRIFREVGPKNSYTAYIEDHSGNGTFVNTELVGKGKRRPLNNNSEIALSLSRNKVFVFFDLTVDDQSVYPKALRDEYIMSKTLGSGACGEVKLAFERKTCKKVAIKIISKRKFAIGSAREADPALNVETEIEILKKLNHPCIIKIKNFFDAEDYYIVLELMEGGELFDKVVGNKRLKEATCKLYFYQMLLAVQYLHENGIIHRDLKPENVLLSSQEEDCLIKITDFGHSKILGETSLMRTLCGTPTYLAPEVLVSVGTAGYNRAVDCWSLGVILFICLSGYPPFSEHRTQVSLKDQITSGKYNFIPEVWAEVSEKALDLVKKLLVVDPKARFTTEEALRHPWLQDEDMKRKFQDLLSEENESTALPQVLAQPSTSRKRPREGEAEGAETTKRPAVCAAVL

Fyn(h) = Fyn(h) (human, UniProt P06241 1-537, limits assumed)
Chain of Fyn(h) (P06241 whole entry): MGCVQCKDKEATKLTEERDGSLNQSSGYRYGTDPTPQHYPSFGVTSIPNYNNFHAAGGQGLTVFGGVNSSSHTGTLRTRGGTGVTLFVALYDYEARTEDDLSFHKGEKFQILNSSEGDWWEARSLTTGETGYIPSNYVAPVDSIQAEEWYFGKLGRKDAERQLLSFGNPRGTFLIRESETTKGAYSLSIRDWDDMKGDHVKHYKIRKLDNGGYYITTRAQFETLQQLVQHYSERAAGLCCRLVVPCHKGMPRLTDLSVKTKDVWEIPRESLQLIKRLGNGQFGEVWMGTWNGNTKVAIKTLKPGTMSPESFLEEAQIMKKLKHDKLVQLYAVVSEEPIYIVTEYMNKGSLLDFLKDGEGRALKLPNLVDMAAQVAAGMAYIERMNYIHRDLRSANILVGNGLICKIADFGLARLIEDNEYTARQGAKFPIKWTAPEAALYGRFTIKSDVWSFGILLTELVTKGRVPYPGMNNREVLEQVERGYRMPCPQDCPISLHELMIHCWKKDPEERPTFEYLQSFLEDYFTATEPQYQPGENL

IR(h), activated = IR(h), activated (human, UniProt P06213 1005-1310, limits assumed)
DYRK2(h) = molecular target: T2, DYRK2(h) (human, UniProt Q92630 1-601, limits assumed)
T2 sequence (looked up): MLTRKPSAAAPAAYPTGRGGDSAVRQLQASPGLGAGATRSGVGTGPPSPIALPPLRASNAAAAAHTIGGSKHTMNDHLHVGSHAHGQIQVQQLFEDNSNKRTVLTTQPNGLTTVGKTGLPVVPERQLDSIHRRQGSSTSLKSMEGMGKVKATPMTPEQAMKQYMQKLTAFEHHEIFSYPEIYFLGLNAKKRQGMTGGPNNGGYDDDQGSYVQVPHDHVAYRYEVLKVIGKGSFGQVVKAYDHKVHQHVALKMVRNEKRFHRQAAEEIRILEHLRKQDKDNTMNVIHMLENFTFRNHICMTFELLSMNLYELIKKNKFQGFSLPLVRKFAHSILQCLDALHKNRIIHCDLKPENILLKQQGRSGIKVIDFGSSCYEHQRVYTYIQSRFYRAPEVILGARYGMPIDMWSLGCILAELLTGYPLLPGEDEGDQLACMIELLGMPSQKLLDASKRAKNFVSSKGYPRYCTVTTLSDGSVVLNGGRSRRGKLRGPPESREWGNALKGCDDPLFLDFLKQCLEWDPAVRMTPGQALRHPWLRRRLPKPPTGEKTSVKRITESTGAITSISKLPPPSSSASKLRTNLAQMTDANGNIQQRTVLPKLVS

TAO2(h) = molecular target: T3, TAO2(h) (human, UniProt Q9UL54 1-314, limits assumed)
T3 sequence (looked up): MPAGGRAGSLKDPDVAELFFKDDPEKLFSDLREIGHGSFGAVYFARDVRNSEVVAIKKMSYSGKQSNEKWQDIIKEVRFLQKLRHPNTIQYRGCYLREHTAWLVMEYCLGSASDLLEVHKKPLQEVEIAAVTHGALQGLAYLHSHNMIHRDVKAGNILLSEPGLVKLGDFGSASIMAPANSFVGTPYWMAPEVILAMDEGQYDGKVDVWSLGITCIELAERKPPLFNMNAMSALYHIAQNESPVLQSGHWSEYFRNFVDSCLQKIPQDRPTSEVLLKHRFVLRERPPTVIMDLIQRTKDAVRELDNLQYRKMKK

ALK(h) = ALK(h) (human, UniProt Q9UM73 1058-1620, limits assumed)
Chain of ALK(h) (Q9UM73 1058-1620 limits assumed): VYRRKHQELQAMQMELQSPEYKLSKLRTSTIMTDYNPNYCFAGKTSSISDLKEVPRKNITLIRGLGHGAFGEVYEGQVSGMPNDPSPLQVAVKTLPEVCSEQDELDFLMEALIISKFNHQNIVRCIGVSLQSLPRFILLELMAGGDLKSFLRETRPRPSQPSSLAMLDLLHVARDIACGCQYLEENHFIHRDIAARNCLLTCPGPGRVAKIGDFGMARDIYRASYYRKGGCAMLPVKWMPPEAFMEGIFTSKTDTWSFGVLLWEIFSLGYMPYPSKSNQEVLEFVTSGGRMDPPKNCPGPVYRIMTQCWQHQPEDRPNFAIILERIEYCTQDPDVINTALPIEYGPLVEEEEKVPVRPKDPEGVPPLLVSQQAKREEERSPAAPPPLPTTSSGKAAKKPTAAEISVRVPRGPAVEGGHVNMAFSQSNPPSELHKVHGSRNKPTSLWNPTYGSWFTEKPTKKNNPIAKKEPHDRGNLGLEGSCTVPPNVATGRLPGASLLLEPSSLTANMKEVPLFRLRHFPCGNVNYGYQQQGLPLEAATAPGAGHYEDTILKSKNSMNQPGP

cKit(h) = cKit(h) (human, UniProt P10721 544-976, limits assumed)
Chain of cKit(h) (P10721 544-976 limits assumed): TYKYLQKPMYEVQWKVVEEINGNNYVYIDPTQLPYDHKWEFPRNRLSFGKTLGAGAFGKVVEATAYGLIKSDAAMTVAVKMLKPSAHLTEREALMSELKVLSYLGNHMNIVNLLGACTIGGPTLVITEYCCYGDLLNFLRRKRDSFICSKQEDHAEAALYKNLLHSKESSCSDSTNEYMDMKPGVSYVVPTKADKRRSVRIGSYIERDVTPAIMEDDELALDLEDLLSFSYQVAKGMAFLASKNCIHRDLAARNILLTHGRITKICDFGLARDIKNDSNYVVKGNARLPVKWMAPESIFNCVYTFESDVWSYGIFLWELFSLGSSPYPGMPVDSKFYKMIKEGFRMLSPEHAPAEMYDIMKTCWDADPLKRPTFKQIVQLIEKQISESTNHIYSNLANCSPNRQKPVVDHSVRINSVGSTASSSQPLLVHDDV

PKCγ(h) = PKCγ(h) (human, UniProt P05129 1-697)
VRK2(h) = VRK2(h) (human, UniProt Q86Y07 1-508, limits assumed)
Chain of VRK2(h) (Q86Y07 whole entry): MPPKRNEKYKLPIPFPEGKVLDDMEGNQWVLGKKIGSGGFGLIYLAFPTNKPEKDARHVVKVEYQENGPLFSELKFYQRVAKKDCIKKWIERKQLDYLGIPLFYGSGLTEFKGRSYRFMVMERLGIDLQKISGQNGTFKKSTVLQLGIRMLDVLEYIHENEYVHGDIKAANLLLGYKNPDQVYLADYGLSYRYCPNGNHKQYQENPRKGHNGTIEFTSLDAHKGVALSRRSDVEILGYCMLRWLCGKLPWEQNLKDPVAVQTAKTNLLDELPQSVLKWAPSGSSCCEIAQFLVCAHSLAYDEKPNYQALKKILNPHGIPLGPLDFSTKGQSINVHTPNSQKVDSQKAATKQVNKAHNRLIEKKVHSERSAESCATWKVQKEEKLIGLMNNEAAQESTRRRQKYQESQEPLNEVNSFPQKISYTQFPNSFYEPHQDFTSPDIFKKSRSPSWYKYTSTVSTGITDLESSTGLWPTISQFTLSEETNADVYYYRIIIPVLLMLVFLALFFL

EphB1(h) = molecular target: T4, EphB1(h) (human, UniProt P54762 564-984, limits assumed)
T4 sequence (looked up): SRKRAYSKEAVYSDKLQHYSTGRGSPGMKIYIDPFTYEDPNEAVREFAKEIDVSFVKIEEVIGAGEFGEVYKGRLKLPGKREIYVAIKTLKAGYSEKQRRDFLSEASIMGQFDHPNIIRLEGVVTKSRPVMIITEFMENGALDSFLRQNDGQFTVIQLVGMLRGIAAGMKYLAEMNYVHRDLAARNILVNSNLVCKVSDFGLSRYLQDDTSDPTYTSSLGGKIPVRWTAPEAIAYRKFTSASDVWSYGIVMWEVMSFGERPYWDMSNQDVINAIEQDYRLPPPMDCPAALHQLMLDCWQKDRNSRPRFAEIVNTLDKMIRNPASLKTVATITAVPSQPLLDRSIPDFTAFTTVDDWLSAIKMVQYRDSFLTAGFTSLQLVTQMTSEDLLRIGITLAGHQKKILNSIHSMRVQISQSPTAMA

HIPK1(h) = HIPK1(h) (human, UniProt Q86Z02 158-555, limits assumed)

Chain of PAK6(h) (Q9NQU5 whole entry): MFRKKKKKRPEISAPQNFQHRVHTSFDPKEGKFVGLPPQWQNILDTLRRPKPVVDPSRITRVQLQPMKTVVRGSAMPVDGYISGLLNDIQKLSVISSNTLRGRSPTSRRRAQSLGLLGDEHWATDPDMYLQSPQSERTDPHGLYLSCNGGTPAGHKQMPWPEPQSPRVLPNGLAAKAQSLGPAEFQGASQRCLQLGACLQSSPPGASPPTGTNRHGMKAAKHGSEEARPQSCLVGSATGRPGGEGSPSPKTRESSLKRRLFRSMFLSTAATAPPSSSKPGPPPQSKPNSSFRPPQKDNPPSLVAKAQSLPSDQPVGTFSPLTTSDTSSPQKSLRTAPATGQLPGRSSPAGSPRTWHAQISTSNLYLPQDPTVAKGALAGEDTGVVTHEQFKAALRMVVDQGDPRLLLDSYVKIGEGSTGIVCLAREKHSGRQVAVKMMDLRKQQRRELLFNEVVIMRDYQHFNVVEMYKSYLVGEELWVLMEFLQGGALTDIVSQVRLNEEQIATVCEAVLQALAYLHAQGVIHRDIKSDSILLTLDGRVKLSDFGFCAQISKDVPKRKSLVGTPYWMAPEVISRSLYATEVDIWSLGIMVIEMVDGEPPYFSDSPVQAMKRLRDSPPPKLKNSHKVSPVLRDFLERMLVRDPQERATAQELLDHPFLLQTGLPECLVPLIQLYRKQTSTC

B1: MMI-0300 (peptide)
peptide: FAKLAARLYRKALARQLGVAA
PAK6(h)
  % activity: 104%
ALK4(h)
  % activity: 140%
ASK1(h)
  % activity: 80%
TrkB(h)
  % activity: 5%
IGF-1R(h)
  % activity: 119%
Ab1(H396P)(h)
  % activity: 101%
Aurora-B(h)
  % activity: 128%
CHK2(I157T)(h)
  % activity: 43%
Fyn(h)
  % activity: 74%
IR(h), activated
  % activity: 79%
DYRK2(h)
  % activity: 155%
TAO2(h)
  % activity: 70%
ALK(h)
  % activity: 19%
cKit(h)
  % activity: 53%
PKCγ(h)
  % activity: 89%
VRK2(h)
  % activity: 161%
EphB1(h)
  % activity: 44%
HIPK1(h)
  % activity: 74%

B2: MMI-0400 (peptide)
peptide: KAFAKLAARLYRKALARQLGVAA
PAK6(h)
  % activity: 100%
ALK4(h)
  % activity: 130%
ASK1(h)
  % activity: 69%
TrkB(h)
  % activity: 8%
IGF-1R(h)
  % activity: 90%
Ab1(H396P)(h)
  % activity: 105%
Aurora-B(h)
  % activity: 150%
CHK2(I157T)(h)
  % activity: 41%
Fyn(h)
  % activity: 54%
IR(h), activated
  % activity: 59%
DYRK2(h)
  % activity: 195%
TAO2(h)
  % activity: 74%
ALK(h)
  % activity: 16%
cKit(h)
  % activity: 43%
PKCγ(h)
  % activity: 79%
VRK2(h)
  % activity: 185%
EphB1(h)
  % activity: 58%
HIPK1(h)
  % activity: 91%
